Entries after “also recorded” stand apart in the source; their conditions may differ.
Key:
fuLAP2 = type: biochemical, Aspergillus fumigatus; conditions: inhibitor 40 μM; Leu-MCA substrate
Protocol: (§1) Inhibitors and metallic cations were pre-incubated with the enzymes for 15 min at 37° C. Then, Leu-AMC at a 5 mM final concentration was added. After further incubation for 60 min, enzyme activity was measured as described above. The inhibitors and their concentrations tested purified LAPs were: 500 μM amastatin (Bachem), 40 μM benzamidine (Sigma), 500 μM bestatin (Bachem), 5 mM/l mM EDTA (Sigma). 100 μM E-64 (L-trans-epoxysuccinyl-leu-4-guanidinobutylamide) (Bachem), 100 μM leupeptin (Sigma), 5 mM/1 mM ortho-phenanthroline (Sigma), 500 μM p-chloromercuribenzoic acid (Sigma), 100 μM pepstatin A (Sigma), 40 μM PMSF (Sigma), 20 μM TLCK (Roche Diagnostics), and 20 μM TPCK (Roche Diagnostics).

[1] = biological target: T1, pkLAP (microsomal LAP from porcine kidney) (Sus scrofa, UniProt P15145); experiment: Effect of chemical reagents (inhibitors, metallic cations) on LAP activity with Leu-AMC; type: biochemical; conditions: inhibitor 40 μM; Leu-MCA substrate
T1 construct: purchased Sigma; host or cells: porcine kidney
T1 sequence (P15145 1-963): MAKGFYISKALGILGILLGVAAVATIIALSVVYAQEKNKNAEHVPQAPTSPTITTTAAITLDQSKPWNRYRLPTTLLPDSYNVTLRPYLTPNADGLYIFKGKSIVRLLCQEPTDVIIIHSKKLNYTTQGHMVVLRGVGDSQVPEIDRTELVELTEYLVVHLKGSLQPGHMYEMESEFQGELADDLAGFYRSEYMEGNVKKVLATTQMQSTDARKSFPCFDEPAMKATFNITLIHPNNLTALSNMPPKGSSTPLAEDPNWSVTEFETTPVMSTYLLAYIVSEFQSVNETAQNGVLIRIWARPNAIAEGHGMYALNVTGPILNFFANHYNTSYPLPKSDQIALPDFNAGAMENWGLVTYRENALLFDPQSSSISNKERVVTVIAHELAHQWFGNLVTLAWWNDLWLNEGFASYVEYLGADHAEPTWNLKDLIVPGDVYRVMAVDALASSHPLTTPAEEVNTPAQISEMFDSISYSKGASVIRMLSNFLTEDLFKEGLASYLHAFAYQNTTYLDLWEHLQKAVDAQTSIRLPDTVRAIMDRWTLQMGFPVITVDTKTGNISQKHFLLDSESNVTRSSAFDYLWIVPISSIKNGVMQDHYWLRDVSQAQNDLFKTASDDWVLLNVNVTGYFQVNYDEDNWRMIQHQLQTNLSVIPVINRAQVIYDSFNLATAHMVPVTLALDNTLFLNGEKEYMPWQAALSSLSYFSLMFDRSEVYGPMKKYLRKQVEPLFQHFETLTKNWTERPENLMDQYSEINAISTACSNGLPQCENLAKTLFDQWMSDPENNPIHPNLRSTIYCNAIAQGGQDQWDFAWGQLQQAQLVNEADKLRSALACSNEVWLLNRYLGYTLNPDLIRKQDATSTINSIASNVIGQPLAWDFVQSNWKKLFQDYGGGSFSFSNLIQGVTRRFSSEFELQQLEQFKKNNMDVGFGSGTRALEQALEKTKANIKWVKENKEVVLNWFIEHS
Protocol: as §1

[2] = test system: all the LAPs tested (ruLAP1, ruLAP2, fuLAP1, fuLAP2, pkLAP); type: biochemical; conditions: Leu-AMC 5 mM; amastatin 500 μM; ortho-phenantroline 1 and 5 mM; others as
Protocol: as §1

fuLAP1 = fuLAP1 (Aspergillus fumigatus, UniProt Q5VJG6); type: biochemical; conditions: inhibitor 40 μM; Leu-MCA substrate
Protocol: as §1

ruLAP1 = ruLAP1 (Trichophyton rubrum, UniProt Q5QHG5); type: biochemical; conditions: inhibitor 40 μM; Leu-MCA substrate
Protocol: as §1

ruLAP2 = ruLAP2 (Trichophyton rubrum, UniProt Q5QHG6); type: biochemical; conditions: inhibitor 40 μM; Leu-MCA substrate
Protocol: as §1

[3] = test system: T. rubrum secreted proteolytic activity; experiment: Inhibition of T. rubrum secreted proteolytic activity (resorufin-labeled casein); type: biochemical, Trichophyton rubrum; conditions: resorufin-labeled casein as substrate
Protocol: The proteolytic activity was measured using resorufin-labeled casein in phosphate buffer (20 mM; pH 7.4). The reaction mixture contained 0.02% substrate in a total volume of 0.5 ml. After incubation at 37° C., the undigested substrate was precipitated by trichloroacetic add (4% final concentration) and separated from the supernatant by centrifugation. The absorbance at 574 nm of the supernatant was measured after alkalinization by adding 500 μl Tris buffer (500 mM; pH 9.4). For practical purposes, one unit (U) of proteolytic activity was defined as that producing an absorbance of 0.001 per min.
T. rubrum was grown at 30° C. in a medium containing 0.2% soy protein as a sole carbon and nitrogen source. After 14 days of growth, a concomitant clarification of the culture medium was noted and a substantial proteolytic activity (400 U ml^−1) detected using resorufin-labeled casein as substrate. This proteolytic activity was 15% and 85% inhibited by PMSF and ortho-phenanthroline. respectively, attesting that serine and metalloproteases were secreted by T. rubrum. […] In addition, a high activity on substrates such as Leu-AMC and Leu-pNA was detected in the T. rubrum culture supernatant.

[4] = Aminopeptidase activity assay with fluorogenic aminoacyl-AMC substrates; type: biochemical
Protocol: (§2) Aminopeptidase activity was determined using different fluorogenic aminoacyl-4-methylcoumaryl-7-amide derivatives of peptides and the internally quenched fluorogenic substrate Lys(Abz)-Pro-Pro-pNA for specific determination of aminopeptidase P activity. Stockel et al, Adv Exp. Med. Biol. 421:31-35 (1997). All substrates were from Bachem (Bubendorf, Switzerland). Substrate stock solutions were prepared at 0.1 M according to the recommendations of the manufacturer and stored at −20° C. The reaction mixture contained a concentration of 5 mM substrate and enzyme preparation (between 56 and 2,662 ng per assay depending on the cleavage activity of each enzyme for the substrates) in 25 μl of 50 mM Tris-HCl buffer adjusted at the optimal pH for each LAP (between 7 and 8). After incubation at 37° C. for 60 min, the reaction was terminated by adding 5 μl of glacial acetic acid and the reaction mixture was diluted with 3.5 ml of water. The released 7-amino-4-methylcoumarin (AMC) was measured using a spectrofluorophotometer (Perkin Elmer LS-5 fluorometer, Zurich, Switzerland) at an excitation wavelength of 370 nm and an emission wavelength of 460 nm. A standard curve made with synthetic AMC was used to assess the released AMC. The released diprolyl-p-nitroanilide was measured at an excitation wavelength of 310 nm and an emission wavelength of 410 nm. The LA activities were expressed in mnoles of released AMC or pNA/min/μg protein.
Table 15 details the hydrolytic activity of different LAPs toward various aminoacyl-MCA comparison (%) to Leu-MCA used as a standard.

[5] = Aminopeptidase P activity assay; type: biochemical; conditions: substrate Lys(Abz)-Pro-Pro-pNA, 5 mM, 37° C., 60 min
Protocol: as §2

gliadin 33 mer = experiment: Digestion of gliadin 33 mer (RP-HPLC, ESI-MS); type: biochemical, wheat; conditions: 37° C., 1 mM CoCl2, pH7.2

Chain of ruLAP2 (Q5QHG6 22-495): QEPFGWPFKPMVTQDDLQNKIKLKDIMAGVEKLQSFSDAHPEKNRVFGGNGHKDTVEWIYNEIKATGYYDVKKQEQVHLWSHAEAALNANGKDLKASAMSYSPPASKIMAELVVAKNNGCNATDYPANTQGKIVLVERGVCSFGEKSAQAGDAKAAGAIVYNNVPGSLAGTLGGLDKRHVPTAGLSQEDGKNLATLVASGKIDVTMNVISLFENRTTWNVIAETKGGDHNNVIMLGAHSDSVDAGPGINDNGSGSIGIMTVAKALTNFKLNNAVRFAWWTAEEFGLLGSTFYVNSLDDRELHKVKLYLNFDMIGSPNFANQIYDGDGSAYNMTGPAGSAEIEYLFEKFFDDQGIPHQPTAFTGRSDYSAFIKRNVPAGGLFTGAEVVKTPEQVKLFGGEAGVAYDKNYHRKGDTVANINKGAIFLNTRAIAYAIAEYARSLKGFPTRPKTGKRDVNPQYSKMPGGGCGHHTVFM
Chain of fuLAP1 (Q5VJG6 15-388, looked up, natural form): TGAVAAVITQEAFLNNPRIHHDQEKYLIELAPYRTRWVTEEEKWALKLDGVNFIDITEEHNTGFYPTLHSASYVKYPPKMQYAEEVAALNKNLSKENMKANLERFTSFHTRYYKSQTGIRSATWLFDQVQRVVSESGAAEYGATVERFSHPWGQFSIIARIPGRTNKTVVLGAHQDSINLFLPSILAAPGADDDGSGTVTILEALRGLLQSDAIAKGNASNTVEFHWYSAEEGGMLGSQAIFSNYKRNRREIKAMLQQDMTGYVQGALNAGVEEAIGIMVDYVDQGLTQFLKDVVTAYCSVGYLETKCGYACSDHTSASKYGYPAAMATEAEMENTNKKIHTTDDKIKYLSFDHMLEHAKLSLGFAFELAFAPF
Chain of ruLAP1 (Q5QHG5 19-373): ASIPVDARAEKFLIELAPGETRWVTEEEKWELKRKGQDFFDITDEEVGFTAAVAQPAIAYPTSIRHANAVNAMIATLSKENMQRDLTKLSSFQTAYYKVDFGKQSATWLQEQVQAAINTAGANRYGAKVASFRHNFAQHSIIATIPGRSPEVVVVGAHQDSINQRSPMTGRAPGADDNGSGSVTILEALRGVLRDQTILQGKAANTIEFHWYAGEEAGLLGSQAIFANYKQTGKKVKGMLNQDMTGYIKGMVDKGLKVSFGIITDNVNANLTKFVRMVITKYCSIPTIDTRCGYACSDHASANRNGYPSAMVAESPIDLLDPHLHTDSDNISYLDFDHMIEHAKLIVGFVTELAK

## O=S(=O)(F)Cc1ccccc1 [PMSF]
fuLAP2
  fuLAP2 hydrolytic activity, percentage of control without inhibitor: 84%
[1]
  pkLAP hydrolytic activity, percentage of control without inhibitor: 58%
[2]
  effect of inhibitor on all the LAPs tested: no clear inhibitory effects
fuLAP1
  fuLAP1 hydrolytic activity, percentage of control without inhibitor: 156%
ruLAP1
  ruLAP1 hydrolytic activity, percentage of control without inhibitor: 78%
ruLAP2
  ruLAP2 hydrolytic activity, percentage of control without inhibitor: 79%
[3]
  inhibition of proteolytic activity: 15%

## c1cnc2c(c1)ccc1cccnc12 [ortho-phenanthroline]
[2]
  effect of inhibitor on all the LAPs tested: totally inhibited
[3]
  inhibition of proteolytic activity: 85%

B1: pkLAP: commercially available microsomal LAP from porcine kidney (MEROPS>M1 family) (protein, UniProt P15145 2-963, looked up)
Aminopeptidase N: AKGFYISKALGILGILLGVAAVATIIALSVVYAQEKNKNAEHVPQAPTSPTITTTAAITLDQSKPWNRYRLPTTLLPDSYNVTLRPYLTPNADGLYIFKGKSIVRLLCQEPTDVIIIHSKKLNYTTQGHMVVLRGVGDSQVPEIDRTELVELTEYLVVHLKGSLQPGHMYEMESEFQGELADDLAGFYRSEYMEGNVKKVLATTQMQSTDARKSFPCFDEPAMKATFNITLIHPNNLTALSNMPPKGSSTPLAEDPNWSVTEFETTPVMSTYLLAYIVSEFQSVNETAQNGVLIRIWARPNAIAEGHGMYALNVTGPILNFFANHYNTSYPLPKSDQIALPDFNAGAMENWGLVTYRENALLFDPQSSSISNKERVVTVIAHELAHQWFGNLVTLAWWNDLWLNEGFASYVEYLGADHAEPTWNLKDLIVPGDVYRVMAVDALASSHPLTTPAEEVNTPAQISEMFDSISYSKGASVIRMLSNFLTEDLFKEGLASYLHAFAYQNTTYLDLWEHLQKAVDAQTSIRLPDTVRAIMDRWTLQMGFPVITVDTKTGNISQKHFLLDSESNVTRSSAFDYLWIVPISSIKNGVMQDHYWLRDVSQAQNDLFKTASDDWVLLNVNVTGYFQVNYDEDNWRMIQHQLQTNLSVIPVINRAQVIYDSFNLATAHMVPVTLALDNTLFLNGEKEYMPWQAALSSLSYFSLMFDRSEVYGPMKKYLRKQVEPLFQHFETLTKNWTERPENLMDQYSEINAISTACSNGLPQCENLAKTLFDQWMSDPENNPIHPNLRSTIYCNAIAQGGQDQWDFAWGQLQQAQLVNEADKLRSALACSNEVWLLNRYLGYTLNPDLIRKQDATSTINSIASNVIGQPLAWDFVQSNWKKLFQDYGGGSFSFSNLIQGVTRRFSSEFELQQLEQFKKNNMDVGFGSGTRALEQALEKTKANIKWVKENKEVVLNWFIEHS
[4]
  hydrolysis of Leu-AMC: efficiently hydrolyzed
[4]; Leu-AMC used as a reference
  preference for aminoacyl-AMC substrates compared to Leu-AMC: extremely high efficiency towards Ala-AMC and Arg-AMC; also recorded: common preference for Leu-AMC as a substrate
[4]; substrate Ala-AMC, 5 mM, 37° C., 60 min
  hydrolytic activity toward Ala-AMC in comparison (%) to Leu-MCA: 584.7%
[4]; substrate Arg-AMC, 5 mM, 37° C., 60 min
  hydrolytic activity toward Arg-AMC in comparison (%) to Leu-MCA: 174.8%
[4]; substrate Asn-AMC, 5 mM, 37° C., 60 min
  hydrolytic activity toward Asn-AMC in comparison (%) to Leu-MCA: 33.9%
[4]; substrate Asp-AMC, 5 mM, 37° C., 60 min
  hydrolytic activity toward Asp-AMC in comparison (%) to Leu-MCA: 0.9%
[4]; substrate Cys-AMC, 5 mM, 37° C., 60 min
  hydrolytic activity toward Cys-AMC in comparison (%) to Leu-MCA: 35.5%
[4]; substrate Gln-AMC, 5 mM, 37° C., 60 min
  hydrolytic activity toward Gln-AMC in comparison (%) to Leu-MCA: 50.7%
[4]; substrate Glu-AMC, 5 mM, 37° C., 60 min
  hydrolytic activity toward Glu-AMC in comparison (%) to Leu-MCA: 4.7%
[4]; substrate Gly-AMC, 5 mM, 37° C., 60 min
  hydrolytic activity toward Gly-AMC in comparison (%) to Leu-MCA: 74.8%
[4]; substrate Gly-Pro-AMC, 5 mM, 37° C., 60 min
  hydrolytic activity toward Gly-Pro-AMC in comparison (%) to Leu-MCA: 16.7%
[4]; substrate His-AMC, 5 mM, 37° C., 60 min
  hydrolytic activity toward His-AMC in comparison (%) to Leu-MCA: 17.6%
[4]; substrate Hyp-AMC, 5 mM, 37° C., 60 min
  hydrolytic activity toward Hyp-AMC in comparison (%) to Leu-MCA: 1.7%
[4]; substrate Ile-AMC, 5 mM, 37° C., 60 min
  hydrolytic activity toward Ile-AMC in comparison (%) to Leu-MCA: 6.3%
[4]; substrate Leu-AMC (standard), 5 mM, 37° C., 60 min
  hydrolytic activity toward Leu-AMC in comparison (%) to Leu-MCA used as a standard: 100.0%
[4]; substrate Lys-AMC, 5 mM, 37° C., 60 min
  hydrolytic activity toward Lys-AMC in comparison (%) to Leu-MCA: 70.1%
[4]; substrate Met-AMC, 5 mM, 37° C., 60 min
  hydrolytic activity toward Met-AMC in comparison (%) to Leu-MCA: 46.1%
[4]; substrate Phe-AMC, 5 mM, 37° C., 60 min
  hydrolytic activity toward Phe-AMC in comparison (%) to Leu-MCA: 184.4%
[4]; substrate Pro-AMC, 5 mM, 37° C., 60 min
  hydrolytic activity toward Pro-AMC in comparison (%) to Leu-MCA: 7.9%
[4]; substrate Pyr-AMC, 5 mM, 37° C., 60 min
  hydrolytic activity toward Pyr-AMC in comparison (%) to Leu-MCA: 0.0%
[4]; substrate Ser-AMC, 5 mM, 37° C., 60 min
  hydrolytic activity toward Ser-AMC in comparison (%) to Leu-MCA: 24.6%
[4]; substrate Thr-AMC, 5 mM, 37° C., 60 min
  hydrolytic activity toward Thr-AMC in comparison (%) to Leu-MCA: 4.4%
[4]; substrate Val-AMC, 5 mM, 37° C., 60 min
  hydrolytic activity toward Val-AMC in comparison (%) to Leu-MCA: 4.0%
[5]
  hydrolytic activity toward Lys(Abz) Pro-PropNA in comparison (%) to Leu-MCA: 0.0%
Gliadin 33 mer
  digestion of the 33 mer: partial deletion of N-terminal Leu and C-terminal Phe

From patent publication US7943340B2, “Fungal dipeptidyl peptidase IV (DPPIV) enzyme for reagent use” (priority 2003, dated 2011)
